US20230257452A1 (GTINVENT, published 2023)
Where a chain is given by its changes, count along the chain named.

B1: CA12 scAb (scFv)
scFv: QVQLQGSGPSLVKPSQTLSLTCTVSGFSFDSYYVGWVRQAPGKALEWLGNIYSTGRAFYNPALKSRLSITRDTSKSQVSLSVSSVTIEDTALYYCVRGSYYHGGGNGMVDFFDYWSPGLLVTVSSEGKSSGASGESKVDDQVVRTQPSSVSGSLGQRVSITCSGSSSNVGYGNYVGWFQQVPGSAPKLLIYAATSRASGVPDRFSGSRSGNTATLTIDSLQAEDEADYYCSSYQRGNTGVFGSGTRLTVLG
notes: not shown: human C kappa domain and hexa-His tag of the scAb format
B2: S1F4 scAb (scFv)
scFv: QVQLQESGPSLVKPSQTLSLTCTVSGFSLSSNSVGWVRQAPGKAPEWVAGIDTDGEEGYNPALNSRLSITRDTSKSQVSLSLSSVTSEDTAVYYCVRSYRADGLAYGYVQAIDYWGPGLLLTISSEGKSSGASGESKVDDQAVVTQPSSVSGSLGQRVSITCSGSFIGISSVGWFQQLPGSGLRTVIVASDGRPSGVPDRFSNSKSGNTATLTISSLQAEDEADYFCGSSDRTQYTGVFGSGTRLTVLG
notes: as for B1
B3: E2B7 scAb (scFv)
scFv: QVQLQESGPSLVKPSQTLSLTCTVSGFSLTSWGVAWVRQAPGKALEWLGTMRSGGGTEYNPALKSRLSITRDTSKSQVSLSLSSVTTEDMAMYYCARGYLSGIHYAWGRGLLVSVSSEGKSSGASGESKVDDQAVLTQLSSVSGSLGQRVSITCSGSSSNVGDGDYVGWFQQLPGSAPKLLIYSARNRASGVPDRFSGSRSGNTATLTITSLQAEDEADYYCASIDTSRSHIFGSGTRLTVLG
notes: as for B1
B4: CA4 scAb (scFv)
scFv: QVQLQESGPSLVKPSQTLSLTCTVSGFSLTSYSVYWVRQAPGQALEWISIMYASGRVDYNPALKSRLSITRDTSKSQFSLSLSSVTTEDTAVYYCTRGIENWGPGLLVTVSSEGKSSGASGESKVDDDIQVTQSPSSLSASLTERVSITCRTSQSVNNYLSWYQQKPGQAPKLLIYYATRLYTDVPSRFSGSGSGTDYTLTITSLEADDTATYYCLQYDSTPLAFGGGTNVEIK
notes: as for B1
B5: 412E10 scAb (scFv)
scFv: QVQLQESGPSLVKPSQTLSLTCTVSGFSVISDSVAWVRQAPGKVPEWLGASGSSGNKYYNPALKSRLSITRDTSKSQVSLSLSSVTTEDTAVYYCARGIIAGVDVWGRGLLVTVSSEGKSSGASGESKVDDQAVLTQPSSVSGSLGQRVSITCSGSSSNVGYGNYVGWYQQVPGSAPKLLIYGTAIRASGVPDRFSGSRSGDTATLTITSLQAEDEADYYCASYQSNYAFFGSGTRLTVLG
notes: as for B1
B6: CC7 scAb (scFv)
scFv: QVQLQESGPSLVKPSQTLSLTCTVSGFSLTSNAVIWVRQAPGKAPEWVALIDVDGDAAYDPALKSRLSITRDTSKSQVSLSLRSVTTEDTAVYYCARDYGSWGYVSDIDYWGPGLLVTVSSEGKSSGASGESKVDDRVVRTQPSSVSGSLGQRVSITCSGSYITGSSVGWFQQVPGSGLKTVIYDNNDRPSGVPDRFSGSKSGDTATLTISSLQAEDEADYYCASYDTSNIGLFGSGTRLTVLG
notes: as for B1
B7: S1G10 scAb (scFv)
scFv: B2 scFv with S30T, V96G, L121V, I123V, V144L, V150M, V186I, N203M
notes: as for B1
B8: CB7 scAb (scFv)
scFv: QVQLQESGPSLVKPSQTLSLTCTVSGFSLTNYRVGWVRQAPGKALEWVSNIRSGGTTWYNPALKSRLSITADTSKSQVSLSLSSVTTEDTAVYYCARDSSGDLYAYDYWGPGLLVTVSSEGKSSGASGESKVDDQAVLTQPSSVSRSLGQSVSMTCSGSSSNVGYGNYMAWFQQVPGSAPKLLIYGATSRASGVPDRFSGSRSGNTATLTISSLQAEDEADYYCASYDSTSGGVFGSGTRLTVLG
notes: as for B1
B9: E2E8 mAb (antibody, mouse IgG2a, V domains shown)
VH: QVQLQESGPSLVKPSQTLSLTCTVSGFSLTDRGVAWVRQAPGKALEWVGTMRSGGTIDYNPALKSRLSITRDTSKSQVFLSLSSVTTEDMAMYYCARGYLSGDRYAWGRGLLVTVSS
VL: QAVLTQPSSVSKSLGQSVSIACSGSRSDIGYGNYVSWFQQIPGSAPKLLIYDTNTRASGVPDRFSGARSGNTATLTINSLQAEDEADYYCANIDSSRSHLFGSGTRLTVLG
notes: sheep-mouse (IgG2a) chimeric mAb
B10: S1D9 scAb (scFv)
scFv: QVQLQESGPSLVKPSQTLSLTCTVSGFSLTSNSVGWVRQAPGKAPEWVAGIDSDGEEGYNPALNSRLSITRDTSKNQVSLSLSRVTSEDTAVYYCGRTYRTDGYAYGYVQAIDYWGPGLLVTVSSEGKSSGASGESKVDDRVMLTQPPSVSGSPGQTVSITCSGSFIGISSVGWFQQLPGSGLRTVIFASDGRPSGVPDRFSNSKSGNTATLTISSLQAEDEADYFCGSSDRTQYTGVFGSGTRLTVLS
notes: as for B1
B11: CB2 scAb (scFv)
scFv: QVQLQESGPSLVKPSQTLSLTCTVSGFSLSTNSVGWVRQAPGKAPEWVAGIDTDGEEGFNPVLKSRLSITRDTSKSQVSLSLSNVTSEDTAVYYCGRSYRTDGLAYGYVQAIDYWGPGLLVTISSEGKSSGASGESKVDDQSVLTQPSSVSGSPGQTVSITCSGSYIGSSGVGWFQQLPGSGLRTIIVASDGRPSGVPDRFSMSKSGNTATLTISSLQAEDEADYFCGSSDRTQYTGLFGSGTRLTVLG
notes: as for B1
B12: CE3 scAb (scFv)
scFv: QVRLQESGPSLVKPSQTLSVTCTVSGFSLISNAVGWVRQAPGKVPESLAGCSSDGKCYYNSALKSRLDITRDTSKNQISLSLSSVTTDDAAVYYCTRGYYPVYGYDYLGTIDYWGPGLLVTVSSEGKSSGASGESKVDDQAVLTQPSSVSGSLGQRVSITCSGSSSNVGRNDVAWFQQLPGSGLRTIIYGTTSRPSGIPDRFSGSKSGVTATLTIDSLQAEDEADYFCASGDSSAINDIFGSGTRLTVLG
notes: as for B1
B13: S2C6 scAb (scFv)
scFv: QVQLQESGPSLVKPSQTLSLTCTVSGFSLISNSVGWVRQAPGKAPEWVAGIDTDGEEGYNPALKSQYAASDPDTSKSQVSLSLSSVTSEDTAVYYCGRTYRTDGFAYGYVQAIDYWGPGLLLTISSEGKSSGASGESKVDDQAVLTQPSSVSGSLGQRVSITCSGSFIGISSVGWFQQLPGSGLRTIIVASDGRPSGVPDRFSMSKSGNTATLTISSLQAEDEADYFCGSSDRTQYTGVFGSGTRLTVLG
notes: as for B1
B14: S1E12 scAb (scFv)
scFv: B2 scFv with S30G, V96G, L121V, I123V, Q141R, A142V, V144R, V186I, N203M
notes: as for B1
B15: S1B1 scAb (scFv)
scFv: B2 scFv with A101T, L121V, I123V, V144L
notes: as for B1
B16: CE2 scAb (scFv)
scFv: QVQLQESGPSLVKPSQTLSLTCTVSGFSLTNYPVGWVRQAPGKALEWIGNIENDGSANYASALKSRLSITRDTSKNQVSLSLSSATTEDTAVYYCGREFGGSDGYTYFVDIDYWGPGLLVTVSSEGKSSGASGESKVDDQAVLTQPSSVSKSLGQSVSITCSGSSSNVGYGNYVSWFQQVPGSAPKILIYGATSRASGVPDRFSGSRSGNTATLTITSLQAEDEADYYCASYDGSSSGVFGSGTRLTVLG
notes: also called CE2/E1B8; not shown: human C kappa domain and hexa-His tag of the scAb format

These binders were tested against T1, full length human tau protein (2N4R, isoform Tau-F, 441 amino acids) (human, UniProt P10636 1-758) (assay: ELISA, hT40 coated, scAb titrated).
T1 construct: also called hT40; htau40
T1 sequence (P10636 other isoform, or with tags, fused parts or gaps limits assumed): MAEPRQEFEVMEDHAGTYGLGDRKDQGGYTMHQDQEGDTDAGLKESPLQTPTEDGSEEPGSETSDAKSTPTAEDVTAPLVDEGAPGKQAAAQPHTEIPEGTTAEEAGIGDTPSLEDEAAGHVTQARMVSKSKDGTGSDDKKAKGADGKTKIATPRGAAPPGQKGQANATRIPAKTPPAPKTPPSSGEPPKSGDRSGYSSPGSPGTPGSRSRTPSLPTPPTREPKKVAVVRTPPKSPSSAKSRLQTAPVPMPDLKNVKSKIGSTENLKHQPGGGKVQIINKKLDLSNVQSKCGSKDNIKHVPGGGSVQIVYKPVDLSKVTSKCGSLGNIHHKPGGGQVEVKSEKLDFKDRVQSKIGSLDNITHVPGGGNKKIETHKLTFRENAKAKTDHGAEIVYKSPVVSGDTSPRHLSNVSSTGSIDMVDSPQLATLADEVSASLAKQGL
In the case of B1, the “EC50 (read off the curve)” value is reported as ~0.02 µg/mL.
In the case of B2, the “EC50 (read off the curve)” value is reported as ~0.05 µg/mL.

What follows are binders tested against T2, dGAE (tau 297-391) (human, UniProt P10636 614-708) (assay: ELISA, antigen coated, scAb titrated).
T2 construct: also called dGAE95
T2 sequence (P10636 614-708 limits assumed): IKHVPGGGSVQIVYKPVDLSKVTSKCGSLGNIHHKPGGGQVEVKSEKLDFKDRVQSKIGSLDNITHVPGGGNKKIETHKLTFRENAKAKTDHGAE
Text: The plates were blocked with 2% MPBS and scAb samples added at desired starting concentrations and double diluted across the plate. Binding was detected using anti-Human C Kappa HRP conjugated secondary antibody and the resulting immunoreaction was developed and absorbance values measured as described above.
B3: binds.

What follows are binders tested against T1, full length human tau protein (2N4R, …) (assay: sandwich ELISA, S1D12 mAb capture, hT40 titrated, detection scAb, chemiluminescent).
Description: (§1) Full length tau (hT40), at 1 μg/ml starting concentration was added to designated wells and double diluted across rest of the plates and left to incubate at R/T for 1 h. A series of detection scAbs with varying epitope recognition properties were added at 10 μg/ml to designated wells (FIG. 22). For colourimetric detection HRP conjugated anti-HuCk secondary antibody was used and the resulting immunoreaction was developed and absorbance at 450 nm measured as described previously. Cut-off point for a positive binding event was an absorbance value of 0.3 following background subtraction. In order to enhance the assay sensitivity, a chemiluminescent detection method was adopted where 50 μL SuperSignal ELISA Femto Substrate (Thermo Scientific) was added to each well following incubation with anti-HuCK HRP antibody and subsequent washing. The luminescence was read using Clariostar Plus microplate reader. A further modification to this protocol was done where various detection scAbs were directly conjugated with HRP and detected using chemiluminescent protocol as before.
For B4, the “LoD (ng/ml) chemiluminescence detection” value was 0.37 ng/mL.
In the case of B5, the “LoD (ng/ml) chemiluminescence detection” value is reported as 0.37 ng/mL.
In the case of B6, the “LoD (ng/ml) chemiluminescence detection” value is reported as 3.33 ng/mL.
With B7 the “LoD (ng/ml) chemiluminescence detection” value was 0.12 ng/mL.
With B8 the “LoD (ng/ml) chemiluminescence detection” value was 3.33 ng/mL.

These binders were tested against T3, dGAE aggregates (human, UniProt P10636 614-708, limits assumed) (assay: capture ELISA, mAb coated at 1 ug/ml, dGAE aggregates titrated, S1G2 scAb detection).
T3 construct: 100 µM dGAE aggregated with DTT at 37 °C, 700 rpm, 24 h; also called aggregated dGAE
T3 sequence (P10636 614-708 limits assumed): as above
B9: binds.

Each binder was assayed against T1, full length human tau protein (2N4R, …) (assay: sandwich ELISA, S1D12 mAb capture, hT40 titrated, detection scAb at 10 ug/ml, colourimetric).
Description: as §1
For B4, the “LoD (ng/ml) colourimetric detection” value was 6 ng/mL.
For B5, the “LoD (ng/ml) colourimetric detection” value was 20 ng/mL.
With B6 the “LoD (ng/ml) colourimetric detection” value was 6 ng/mL.
In the case of B7, the “LoD (ng/ml) colourimetric detection” value is reported as 2 ng/mL.
B8 was tested, and the “LoD (ng/ml) colourimetric detection” value was 15 ng/mL.

Each binder was assayed against T2, dGAE (tau 297-391) (assay: tau-tau immunoassay: scAb preincubated with 100 nM dGAE; blocked ligand: plate-bound dGA (1000 nM); bound dGAE detected with E2E8).
Description: The adapted method is as follows: dGA (1000 nM) was adsorbed to a Nunc 96-well MaxiSorp plate and incubated for 1 h at 37° C. Plates were subsequently washed 3 times with PBST which was performed after each 1 h incubation. The plates were blocked with 2% (w/v) dried milk powder in PBS for 1 h at 37° C. […] The secondary antibody used was HRP-conjugated Anti-mouse IgG (1:1000 dilution, Sigma) and incubated at RT for 1 h. The plate was subsequently developed, and readings taken at absorbance 450 nm.
For B4, the B50 was 221 nM.
Binder B10 has a B50 of 107 nM.
B1 was tested, and the B50 was 59 nM.
For B11, the B50 was 93 nM.
In the case of B12, the B50 is reported as 209 nM.
Work on B13 yielded a B50 of 51 nM.
For B7, the B50 was 207 nM.
For B14, the B50 was 92 nM.
B15 showed a B50 of 101 nM.
B16 gave a B50 of 211 nM.
